± gives the uncertainty stated by the source.
Experiment: protein stability index of a GFP-peptide fusion (yeast GPS) (PSI 1-4); higher = more stable; sorted into four equal gates, so the index is relative within each strain
How it was run: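 Yeast carrying a pooled library were grown to mid-log phase in leucine-free medium. Each library plasmid expresses Cherry and has a tiled 17-residue yeast protein peptide fused downstream of GFP. Cells were sorted into four equal gates by GFP/Cherry ratio, and plasmids from each gate were PCR-amplified, Illumina-sequenced and assigned to strains by barcode. Summing, across gates, the read frequency times the gate number gave each peptide's protein stability index.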

Row | Sequence | protein stability index (doa10∆) | protein stability index (pdr5∆) | protein stability index (san1∆) | protein stability index (ubr1∆)
1 | MRILPRETDPLVYNMTS [RPT4] | 3.07 ± 0.078 | 2.85 ± 0.065 | 3.18 ± 0.06 | 2.73 ± 0.057
2 | LLYELTAFKATVFFLIR [YJL039C/NUP192] | 2.32 ± 0.071 | 2.36 ± 0.09 | 1.82 ± 0.077 | 2.43 ± 0.063
3 | DYQVQGLNWLISLHENK [ISW2] | 1.53 ± 0.052 | 2.15 ± 0.058 | 1.64 ± 0.078 | 2.19 ± 0.054
4 | TIFNLPKNKLVPTLEAK [FAS1] | 2.27 ± 0.059 | 2.34 ± 0.081 | 3.08 ± 0.051 | 3.01 ± 0.061
5 | DEEIIQLHFSLLDEEAE [RPO21] | 2.86 ± 0.078 | 3.01 ± 0.09 | 2.89 ± 0.083 | 2.83 ± 0.23
6 | DLLKFENISLAEFILKN [BRR2] | 2.94 ± 0.082 | 3.3 ± 0.09 | 2.82 ± 0.062 | 2.83 ± 0.074
7 | SEGEQKSAEGNNIDQSL [YAR002W/NUP60] | 2.98 ± 0.063 | 2.94 ± 0.048 | 2.94 ± 0.066 | 3.05 ± 0.065
8 | LIENKIQNKKIQEQRVK [RPN8] | 2.61 ± 0.075 | 2.7 ± 0.073 | 2.74 ± 0.068 | 2.83 ± 0.049
9 | IVGKSNVLVTMPVAPTM [YMR129W/POM152] | 2.66 ± 0.12 | 2.56 ± 0.08 | 2.07 ± 0.17 | 2.65 ± 0.055
10 | NKAQAKMDKRAKNSDSA [RPL8A] | 3.43 ± 0.094 | 3.38 ± 0.11 | 3.27 ± 0.047 | 3.54 ± 0.067
11 | ETASFIPTKESLTRDFE [YIL149C/MLP2] | 2.83 ± 0.068 | 3.09 ± 0.075 | 2.41 ± 0.077 | 2.72 ± 0.046
12 | LTLKHRQNKVQHQRIVA [RPN10] | 1.54 ± 0.071 | 1.97 ± 0.11 | 2.9 ± 0.25 | 1.84 ± 0.12
13 | NLRLKILTIIEEYKKSL [GRR1] | 1.65 ± 0.068 | 1.6 ± 0.055 | 1.86 ± 0.083 | 1.61 ± 0.07
14 | KSEEVKAEDDTGEEEED [RPC37] | – | – | – | 2.95 ± 0.19
15 | NVNNNNIGQQQVKKPRK [SWI1] | 3.42 ± 0.12 | 3.37 ± 0.16 | 3.29 ± 0.084 | 3.13 ± 0.21
16 | EEYKKSLYAYCHSKLRG [GRR1] | 2.29 ± 0.074 | 2.31 ± 0.07 | 2.42 ± 0.09 | 2.44 ± 0.075
17 | LYPSFKPIYKDTRFGGR [SSN2] | 3.17 ± 0.15 | 3.16 ± 0.087 | 3.1 ± 0.047 | 3.41 ± 0.14
18 | QQLRTWKRQISYFLKLL [SRB8] | 1.63 ± 0.049 | 2.18 ± 0.066 | 1.93 ± 0.088 | 1.91 ± 0.039
19 | MAFEASAAAAGNRNSSS [BRR2] | 3.12 ± 0.11 | 3.1 ± 0.11 | 2.35 ± 0.12 | 3.14 ± 0.11
20 | NDSNPSFSFSIPSKNTP [YLR335W/NUP2] | 2.42 ± 0.048 | 2.13 ± 0.04 | 2.58 ± 0.046 | 2.64 ± 0.047
21 | NSPSSALRALQENGTIF [YDL088C/ASM4] | 2.13 ± 0.062 | 2.05 ± 0.053 | 1.53 ± 0.069 | 2.01 ± 0.039
22 | NGTVNNNSALSNVNSDI [RPT3] | 2.91 ± 0.1 | 2.77 ± 0.067 | 1.81 ± 0.087 | 2.15 ± 0.051
23 | PSNSTTTLHGPGFQLPN [SRB8] | 3 ± 0.1 | 2.85 ± 0.096 | 2.71 ± 0.066 | 2.91 ± 0.058
24 | NSMDMVDGMAKVPIGLI [RGR1] | 3.4 ± 0.12 | 3.37 ± 0.072 | 2.99 ± 0.15 | 3.23 ± 0.073
25 | TKTNVDNNSKAEASFTF [YLR335W/NUP2] | 3.05 ± 0.063 | 3.24 ± 0.067 | 3.07 ± 0.045 | 3.13 ± 0.046
26 | SLRSNVVVAETSPEKKD [YAR002W/NUP60] | 2.23 ± 0.05 | 2.63 ± 0.063 | 2.21 ± 0.069 | 2.4 ± 0.061
27 | KDNGMLIIDGQIIFGVV [RPO21] | 1.95 ± 0.12 | 1.79 ± 0.076 | 1.61 ± 0.21 | 2.73 ± 0.12

— the supplement of paper PMC9732359
